Common to all, as to type: binding
Assay [1] deals with T1, von Willebrand Factor (vWF) (Homo sapiens, UniProt P04275). Briefly: Peptide-Toyopearl affinity column chromatography of Koate; vWF in fractions by ELISA, protein by A280. Also on record: Koate® containing vWF, FVIII, and albumin was a product of Bayer Corp; tissue Bayer Corp. (Clayton, N.C.) Koate; host or cells: plasma-derived concentrate (Koate). The settings on record: for % vWF by ELISA, flow through / % area of acid peak / % vWF by ELISA, acid / % vWF by ELISA, salt: Table 2; for % vWF by ELISA, flow through / % area of acid peak: 1 ml column; for % area of acid peak: 2% acetic acid peak; for % vWF by ELISA, salt: NaCl gradient eluate. How it is done: The gel slurry (1 ml wet gel mixed with 2 ml degassed PBS and 1 M sodium chloride buffer) was transferred into a packing device (from PerSeptive Biosystems, Framingham, Mass.) and packed into a PEEK column (0.75 cm×5 cm from Alltech, Deerfield, Ill.) at a flow rate of 8 ml/min. […] The column was washed with at least 4 bed volumes of binding buffer (10 mM HEPES, 100 mM NaCl, 5 mM calcium chloride at pH 7) and elution buffer (2% acetic acid), then equilibrated with binding buffer.
Protein concentrations were monitored by A280 absorbance. Samples were characterized using vWF ELISA. Briefly, anti-vWF antibody (from Accurate Inc. N.Y.) was coated on each well of a microliter plate (96 wells from Corning, N.Y. 14831) overnight using 100 μl solution of antibody diluted 200 times in 0.1M sodium bicarbonate buffer at pH 9.6. Each well was then blocked with 300 μl solution of 1% BSA in PBS for 1 hour at room temperature. The plate was washed 5 times with PBS. Pure vWF and the collected samples were diluted to a concentration range between 0.02 to 0.2 μg/ml using 1 mg/ml BSA in PBS. Each sample (100 μl) was incubated with the anti-vWF coated well for 1 hour at room temperature and the plate was washed 5 times with PBS plus 0.1% Tween 20. A second anti-vWF antibody with horse radish peroxidase (HRP) conjugate (from DAKO, Glostrup, Denmark) at a concentration of 1 to 500 dilution was introduced to each well and incubated for i hour at room temperature. The plate was washed again with PBS plus 0.1% Tween 20 for 5 times. Substrate ABTS (2,2'-azino-bis(3-ethylbenz-thiazoline-6-sulfonic acid)) and H2 O2 were used for the kinetic reading at 410 nm using Bio Kinetics Reader from BioTek (Winooski, Vt.).
Peptide RLRSFY was directly synthesized (25) onto a modified Toyopearl resin (--(β-Ala)2 -Toyopearl) and the resin was packed in a 1 ml column (0.7×2.5 cm). Koate (Bayer's product containing vWF, FVIII and human albumin) was applied to the column at a flow rate of 2 ml/min in binding buffer (10 mM HEPES, 5 mM calcium chloride and 0.1M NaCl, pH 7). After 1 min of washing in binding buffer, a linear gradient from 0.1 to 1M NaCl in HEPES buffer was applied to the column over 5 min. The elution with high salt concentration was maintained for another 1 min, before 2% acetic acid was used to elute the retained protein. […] The remainder was eluted using 2% acetic acid. In a control experiment in which no peptide was attached to the resin (only --(β-Ala)2 -Toyopearl), almost all protein from 0.1 ml Koate flowed through the column under the same conditions used for the peptide-Toyopearl column.
Single conservative amino acid substitutions at the first three positions of RLRSFY were synthesized directly on (β-Ala)2 -Toyopearl. Amino acid substitutions used for both positions of arginine (R) were histidine (H), lysine (K), glutamine (Q), and asparagine (N). Substitutions for leucine (L) include isoleucine (I), valine (V), phenylalanine (F), and tyrosine (Y). These individual substitutions created 12 unique peptide sequences. (SEQ ID NOS: 1 to 12 ) After the resins were packed into 1 ml glass columns, 0.1 ml Koate was applied to each column and eluted with sodium chloride gradient and 2% acetic acid, same as in FIG. 1. Fractions were collected and analyzed for A280 absorbance and ELISA. […] The substitution of the R at the third position from the N-terminus had no effect on the capture of vWF from Koate. […] Maximum vWF binding occurred when L was substituted for V.

Assay [2] concerns the target T1, von Willebrand Factor (vWF). Description: Purification of vWF from cryoprecipitate PEG filtrate of human plasma on peptide-Toyopearl column. Conditions: PEG filtrate; 0.15M and 0.35M NaCl washes, 2% acetic acid elution. Here is the method:
The starting material called PEG filtrate was processed from human plasma cryoprecipitate at Bayer Corp. (Clayton, N.C.). This material contained vWF, FVIII, significant fibrinogen, fibronectin, and IgM. The PEG filtrate was treated with 1% TNBP (tri-n-butylphosphate) and 0.5 % Tween 20 (from Aldrich) at 30° C. for 3 hours. After the treatment, the mixture was directly injected onto peptide affinity columns.
Confirmation of the purification of vWF on RVRSFY-Toyopearl was performed using PEG filtrate as the starting material (FIG. 2). Inclusion of a 0.15M NaCl wash and an additional 0.35M NaCl wash removed the bulk of the albumin. Bound vWF was eluted with 2% acetic acid.
The PEG filtrate was treated with virus inactivation reagents, 1% TNBP and 0.5% Tween 20 at 30° C. for 3 hours. The treated PEG fitrate was injected directly into the column. […] Approximately 74% of the total vWF was eluted with 0.35M CaCl2 (small peak at 10 min).

For assay [3] the target is unchanged. Briefly: Batch adsorption isotherm of vWF onto peptide-Toyopearl, Langmuir fit. Set-up: Koate® containing vWF, FVIII, and albumin was a product of Bayer Corp; tissue Bayer Corp. (Clayton, N.C.) Koate; host or cells: plasma-derived concentrate (Koate). Conditions: vWF around 1000 kDa; peptide directly synthesized on Toyopearl; Langmuir fit. Here is the method: Adsorption isotherms were measured in a batch mode. In a siliconized microcentrifuge tube, 0.1 ml wet gel was mixed with vWF solution of 10 mM HEPES, 5 mM calcium chloride and 0.5M sodium chloride at pH 7 in a total volume of 0.3 ml. The microcentrifuge tube was incubated at 25° C. for 20 minutes, then the gel was separated from the solution by microcentrifugation. The concentrations of vWF in solutions were measured both by absorbance at 280 nm with an extinction coefficient of 1.2 for 1 mg/ml vWF and by ELISA.
Interactions between RVRSFY directly synthesized on Toyopearl and vWF were studied through adsorption isotherm measurements. Because vWF consists of a wide range of molecular weights, complex theoretical analyses are required to obtain binding constants from the adsorption isotherms. In addition, different multimers of vWF may have different binding constants. To simplify the analyses, vWF with molecular weight around 1000 kDa was fractionated from Koate using size exclusion chromatography with Bio-Gel A-5M gel (BioRad) and analyzed by nonreducing agarose gel electrophoresis.
An increase of peptide density increases adsorption of vWF. A minimum peptide density, 32 mg peptide Ac-RVRSFYK/ml resin ([…]), is required for the binding of vWF to the peptide. The Langmuir equation was used to fit these isotherms, and the association constants and maximum capacities obtained from curve fits are listed in Table 3. They show an increase of association constant and maximum binding capacity with an increase of peptide density mobilized on the Toyopearl resin.

Consider 13 substances from US5688912A, “Peptide ligands which bind to von willebrand factor” (Bayer Corporation, priority 1995, dated 1997).

No end group written: not given here.

For the substance “RLRSFY (not fully specified (C-terminus)) [RLRSFY-Toyopearl, phage-library-derived peptide directly synthesized onto modified Toyopearl resin (--(β-Ala)2-Toyopearl)]”, the “protein that did not bind to the peptide resin or was loosely bound and eluted by sodium chloride” value in assay [1] (0.1 ml Koate) was “about 60%”. In addition, in assay [1] (0.1 ml Koate (input A280 7.8), flow through fraction ×4 ml), the “A280, flow through” value is listed as 0.071. The “A280, acid” value in assay [1] (0.1 ml Koate, 2% acetic acid fraction ×4 ml) is recorded as 0.070. Also, in assay [1] (0.1 ml Koate, NaCl gradient 0.1 to 1M fraction ×12 ml), the “A280, salt” value is recorded as 0.014. The “vWF recovered in the acid peak” value in assay [1] (Koate, 2% acetic acid) is given as “Approximately one-half”. For the same substance, in assay [1] (Koate, could not be eluted by sodium chloride up to 1M), the “retention of vWF by column” value is listed as “Most of the vWF was retained”. The “% vWF activity by ELISA, acid” value in assay [1] (Table 1, 0.1 ml Koate, 2% acetic acid eluate) was 49.78%. Also, the “% vWF activity by ELISA, salt” value in assay [1] (Table 1, 0.1 ml Koate, NaCl eluate) came out at 0.09%. For the same substance, the “% vWF activity by ELISA, flow through” value in assay [1] (Table 1, 0.1 ml Koate, flow through) amounted to 1.6%. Moreover, the “% recovery (A280 mass balance)” value in assay [1] (total protein recovered from column) amounted to 95%.
“RLKSFY (not fully specified (C-terminus))”: in assay [1] (0.1 ml Koate), the “% vWF by ELISA, flow through” value is reported as 0.60% and the “% area of acid peak” value is recorded as 25.1%. Also, in assay [1] (2% acetic acid eluate), the “% vWF by ELISA, acid” value is reported as 45.58%. Also, in assay [1], the “% vWF by ELISA, salt” value amounted to 3.59%.
The like results for “RLQSFY (not fully specified (C-terminus))” were, in that order, 0.46%, 20.1%, 50.68% and 0.54%.
For the substance “RVRSFY (not fully specified (C-terminus))”, the “purification of vWF (SDS-PAGE)” value in assay [2] is “highly purified”. Besides, in assay [1] (0.1 ml Koate), the “% vWF by ELISA, flow through” value was 0.09% and the “% area of acid peak” value is on record as 30.2%. Besides, in assay [1] (2% acetic acid eluate), the “% vWF by ELISA, acid” value came to 55.78%. In assay [1], the “% vWF by ELISA, salt” value was 0.08%. In assay [3], this substance yielded an Association constant of 1.31e+06 M⁻¹.
For “HLRSFY (not fully specified (C-terminus))”, in assay [1] (0.1 ml Koate), the “% vWF by ELISA, flow through” value is recorded as 0.75% and the “% area of acid peak” value amounted to 26.7%. The “% vWF by ELISA, acid” value in assay [1] (2% acetic acid eluate) was found to be 32.7%. For the same substance, the “% vWF by ELISA, salt” value in assay [1] is given as 0.28%.
With “RLHSFY (not fully specified (C-terminus))”, in assay [1] (0.1 ml Koate), the “% vWF by ELISA, flow through” value came out at 1.77% and the “% area of acid peak” value was determined as 24.9%. Further, the “% vWF by ELISA, acid” value in assay [1] (2% acetic acid eluate) is reported as 50.72%. Further, the “% vWF by ELISA, salt” value in assay [1] amounted to 2.89%.
With “KLRSFY (not fully specified (C-terminus))”, in assay [1] (0.1 ml Koate), the “% vWF by ELISA, flow through” value is 1.03% and the “% area of acid peak” value is recorded as 27.1%. In addition, in assay [1] (2% acetic acid eluate), the “% vWF by ELISA, acid” value is recorded as 26.94%. In assay [1], the “% vWF by ELISA, salt” value was 9.83%.
The like results for “RFRSFY (not fully specified (C-terminus))” were, in that order, 0.20%, 27.8%, 47.96% and 0.07%.
For the substance “QLRSFY (not fully specified (C-terminus))”, in assay [1] (0.1 ml Koate), the “% vWF by ELISA, flow through” value is 29.45% and the “% area of acid peak” value is given as 9.2%. Further, the “% vWF by ELISA, acid” value in assay [1] (2% acetic acid eluate) was found to be 2.20%. Also, the “% vWF by ELISA, salt” value in assay [1] is 11.69%.
The like results for “RLNSFY (not fully specified (C-terminus))” were, in that order, 0.26%, 24.5%, 47.68% and 1.50%.
The corresponding values for “RIRSFY (not fully specified (C-terminus))” are 1.92%, 28.0%, 44.78% and 4.09%.
The like results for “RYRSFY (not fully specified (C-terminus))” were, in that order, 1.65%, 27.1%, 51.72% and 0.14%.
On to “NLRSFY (not fully specified (C-terminus))”, for which, in assay [1] (0.1 ml Koate), the “% vWF by ELISA, flow through” value stood at 19.96% and the “% area of acid peak” value amounted to 14.8%. Moreover, the “% vWF by ELISA, acid” value in assay [1] (2% acetic acid eluate) came out at 6.98%. For the same substance, the “% vWF by ELISA, salt” value in assay [1] is reported as 11.88%.
